{"source": "paper PMC11919473", "about": "“Synthesis and characterisation of DOTA‐kisspeptin‐10 as a potential gallium‐68/lutetium‐177 pan‐tumour radiopharmaceutical” (Journal of Neuroendocrinology, 2025)", "key": {"[1]": {"molecular_target": "T1, KISS1R (Homo sapiens, UniProt Q969F8)", "T1 construct": "expressed in transfected cells; host or cells: HEK 293-T cells, transient transfection with XtremeGene HP", "T1 sequence (Q969F8 whole entry)": "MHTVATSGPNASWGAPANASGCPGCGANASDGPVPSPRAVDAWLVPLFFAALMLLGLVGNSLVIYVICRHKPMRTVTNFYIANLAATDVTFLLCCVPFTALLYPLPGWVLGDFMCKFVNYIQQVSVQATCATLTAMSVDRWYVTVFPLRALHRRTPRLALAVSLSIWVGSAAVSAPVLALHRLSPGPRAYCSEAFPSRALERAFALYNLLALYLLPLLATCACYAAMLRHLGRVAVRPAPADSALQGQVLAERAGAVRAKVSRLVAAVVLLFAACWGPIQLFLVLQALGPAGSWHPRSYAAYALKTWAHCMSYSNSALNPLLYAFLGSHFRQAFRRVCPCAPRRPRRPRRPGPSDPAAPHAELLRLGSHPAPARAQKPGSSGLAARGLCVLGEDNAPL", "experiment": "Inositol phosphate (IP) accumulation assay in HEK 293‐T cells transiently transfected with KISS1R", "format": "cell-based", "details": "for EC50: HEK 293‐T cells expressing KISS1R", "protocol": "HEK 293‐T cell culturing and the IP accumulation assay were performed as described by Newton et al.[15], [16] The IP assay measures the response of the cells to ligands that is a measure of the binding affinity and stimulation of intracellular signalling. This assay was applied to determine whether the novel ligand retained the same or improved activity as KP10.\nHEK 293‐T cells were cultured and maintained using DMEM (10% FBS) media supplemented with Glutamax at 37°C, 5% CO2 and 95% relative humidity. HEK 293‐T cells were passaged at 90% confluency using Trypsin. HEK 293‐T cells were plated out into 24‐well plates at a density of 1 × 10^5 cells/well. Each well was pre‐coated with Matrigel at a 1:30 dilution to ensure adhesion to the well. KISS1R gene construct was transiently transfected into the HEK 293‐T cells at a concentration of 10 ng/μL of KISS1R using XtremeGene HP (1:2 ratio) DNA transfection reagent. Cells were incubated overnight at 37°C at 5% CO2.\nFor the IP assay, the HEK 293‐T cells were incubated with myoinositol‐[2‐3H] […] The radiolabelled IPs were separated using a Dowex 100–200 mesh resin ion‐exchange chromatography, and the radioactivity (cpm) was measured using liquid scintillation (Packard Tricarb 2100 TR liquid scintillation analyser TRI‐CARB 4910TR 110 V Liquid Scintillation Counter, Perkin‐Elmer, USA). […] The results were analysed by doing sigmoidal regression to determine the EC 50 and then compared with their respective normalised ligand signalling assay.\nThe accumulation of the IPs measured for cells transfected with XtremeGene without KISS1R and treated with maximal stimulation of KP10 (1 × 10^−6 M) was subtracted from the measured accumulation of cells stimulated with DOTA‐KP10 over a dose range ([…]–1 × 10^−6 M) that were transfected with KISS1R in the same assay.\nFor the IP assay, the data were fitted using a nonlinear regression to determine Emax and EC50. Data collected from the ex vivo biodistribution were evaluated using the Kruskal–Wallis analysis. […]"}, "[2]": {"format": "in vitro ADME, human", "protocol": "The red blood cell (RBC) binding assay was performed by the method described by Shi and co‐workers.[22] In brief, radiolabelled [^68Ga]Ga‐DOTA‐KP10 (740 kBq in 10 μL) was mixed with 100 μL of human blood drawn up in the presence of heparin. The mixture was incubated in a shaking incubator at 37°C. Samples ([…]) were collected at two time points, 10 and 30 min. Plasma and blood cells were separated by centrifugation (2000 rpm, 5 min). The plasma was removed, and the blood cells were washed twice with 500 μL of normal saline (0.9% NaCl) that was then added to the plasma fraction. The amount (%) of labelled compound that was bound to the RBC was determined by the ratio of distribution between the plasma and blood cell fraction.[22]"}, "[3]": {"format": "in vitro ADME", "protocol": "The protein binding assay was done as described by Mdlophane et al.[18] In brief, [^68Ga]Ga‐DOTA‐KP10 was incubated for 0, 60 and 120 min in serum at 37°C. Proteins were precipitated in ice‐cold acetonitrile (500 μL) and centrifuged (5000 rpm, 10 min). The supernatant was removed, and the protein pellet was washed with acetonitrile (250 μL). The washed protein pellets and supernatants were measured in an automated gamma‐counter (Hidex, Finland)."}, "[4]": {"parameters": "species or system Sprague–Dawley rats", "details": "rat, in vivo, iv", "excerpt": "All procedures followed during the animal studies adhered to institutional and South African national guidelines for the care and use of laboratory animals (SANS10386:2021). Ethical approval for the study was obtained from the Research Animal Ethics Committee of North-West University (NWU-00560-19-S5) and the University of Pretoria (149/2019), South Africa. The animals were provided by the Department of Science and Technology/North-West University Preclinical Drug Development Platform (PCDDP) Vivarium. The study was conducted at the Preclinical Imaging Facility (PCIF) of the Nuclear Medicine Research Infrastructure (NuMeRI), South Africa. Five healthy Sprague-Dawley rats (male, 6-8 weeks, ±200 g) were enrolled into the study. All animals had ad libitum access to a conventional rodent diet and water. Animals were maintained on a 12-h artificial day/night cycle and supplied with corn cob bedding and nesting material for cage enrichment. […] Hybrid images were viewed and analysed using the InterviewFusionTM software (Mediso, Hungary). A qualitative visual analysis was done on all acquisitions, and blood standardized uptake value values were calculated. […] Data collected from the ex vivo biodistribution were evaluated using the Kruskal-Wallis analysis. […] Organs were measured for activity and expressed as the percentage injected dose per gram of the organ (%ID/g). […]"}, "[5]": {"experiment": "in vivo", "parameters": "species or system Sprague–Dawley rats", "details": "rat; for tissue uptake at 2.5 h: male, Sprague-Dawley, iv, 18.8 MBq, total radioactivity", "protocol": "After the final image was acquired (150 min postinjection), the animals were euthanised and ex vivo biodistribution was performed. Euthanasia was performed by an overdose of isoflurane (without waking up post‐scan) followed by decapitation. A quantitative analysis of the radioactivity biodistribution and uptake in various organs of the rats was conducted. Following micro‐PET/CT imaging, the anesthetised animals were euthanised by decapitation and blood was collected into pre‐weighed BD SST vacutainer tubes (thermos Fisher Scientific, Johannesburg, South Africa). The blood samples were centrifuged (6000 rpm, 5 min) to separate the serum from the blood cells. The blood and serum along with the other dissected tissues and organs (heart, liver, spleen, intestines, testes, stomach, lungs and brain) were weighed, and the radioactivity was measured in the automated gamma counter (Hidex AMG, Turku, Finland). The radioactivity per organ was expressed as the percentage injected dose per gram of the organ (% ID/g). […] Data collected from the ex vivo biodistribution were evaluated using the Kruskal–Wallis analysis. A chi‐squared that was less than the H‐statistic was used to indicate significant differences between the concentrations within regions of interest. Organs were measured for activity and expressed as the percentage injected dose per gram of the organ (%ID/g). A multipoint regression model (exponential fit) was used to estimate blood‐half life."}, "[6]": {"format": "in vitro ADME, human", "protocol": "Stability studies were performed in triplicate using [^68Ga]Ga‐DOTA‐KP10 spiked human serum, plasma or whole blood (samples were removed at 5, 60 and 120 min with incubation at 37°C). […] The samples taken (200 μL) at the selected time points were treated with ice‐cold acetonitrile (500 μL) and thereafter filtered with a 0.22‐μm filter to remove all residual proteins in the extract. This sample was then analysed by the HPLC method as described under Section 2.2.4.", "remark": "listed apart in the source"}, "[7]": {"experiment": "physchem", "format": "physicochemical", "protocol": "The method published by Jain and co‐workers was used.[21] Briefly, 100 μL (± 100 MBq) of the labelled [^68Ga]Ga‐DOTA‐KP10 was dispersed in a 1‐mL phosphate‐buffered saline (PBS) and octanol mixture (0.9:1). The samples were vortexed (1 min) and then centrifuged (5 min, 6000 rpm). A sample (200 μL) from each phase was taken, and the activity was measured in the Hidex AMG automated gamma counter (Turku, Finland). The partition coefficient (log P) was expressed as the logarithm of the ratio of counts from the n‐octanol fraction versus that of the aqueous fraction.[21], [22]"}}, "note": "Where two headings read alike, the source gives them in different places.", "data": [{"smiles": "CC(C)C[C@H](NC(=O)CNC(=O)[C@H](Cc1ccccc1)NC(=O)[C@H](CO)NC(=O)[C@H](CC(N)=O)NC(=O)[C@H](Cc1c[nH]c2ccccc12)NC(=O)[C@H](CC(N)=O)NC(=O)[C@H](Cc1ccc(O)cc1)NC(=O)CN1CCN(CC(=O)O)CCN(CC(=O)O)CCN(CC(=O)O)CC1)C(=O)N[C@@H](CCCNC(=N)N)C(=O)N[C@@H](Cc1ccccc1)C(N)=O", "note": "[DOTA‐KP10]", "values": [{"measurement": "EC50", "setting": "[1]; four independent experiments, read-out: EC50", "result": 3.99, "unit": "nM"}, {"measurement": "Emax", "setting": "[1]; HEK-293T, KP10 maximal response set at 100%, read-out: Maximal response as % of that of KP10", "result": 97.8, "unit": "%"}]}, {"smiles": "CC(C)C[C@H](NC(=O)CNC(=O)[C@H](Cc1ccccc1)NC(=O)[C@H](CO)NC(=O)[C@H](CC(N)=O)NC(=O)[C@H](Cc1c[nH]c2ccccc12)NC(=O)[C@H](CC(N)=O)NC(=O)[C@@H](N)Cc1ccc(O)cc1)C(=O)N[C@@H](CCCNC(=N)N)C(=O)N[C@@H](Cc1ccccc1)C(N)=O", "note": "[KP10, kisspeptin‐10]", "values": [{"measurement": "EC50", "setting": "[1]; 1 h ligand incubation at 37°C, 10 mM LiCl, mean ± SEM, N = 4, read-out: EC50 Mean nM ± SEM (N = 4)", "result": "1.87 ± 0.095", "unit": "nM"}]}, {"smiles": "CC(C)C[C@H](NC(=O)CNC(=O)[C@H](Cc1ccccc1)NC(=O)[C@H](CO)NC(=O)[C@H](CC(N)=O)NC(=O)[C@H](Cc1c[nH]c2ccccc12)NC(=O)[C@H](CC(N)=O)NC(=O)[C@H](Cc1ccc(O)cc1)NC(=O)CN1CCN(CC(=O)O)CCN(CC(=O)O)CCN(CC(=O)O)CC1)C(=O)N[C@@H](CCCNC(=N)N)C(=O)N[C@@H](Cc1ccccc1)C(N)=O", "note": "[[^68Ga]Ga‐DOTA‐KP10, metal not drawn]", "values": [{"measurement": "Binding to red blood cells at 10 min", "setting": "[2]", "result": "6.72 ± 0.37", "unit": "%"}, {"measurement": "Binding to red blood cells at 30 min", "setting": "[2]", "result": "6.35 ± 2.7", "unit": "%"}, {"measurement": "Radioactivity bound to plasma proteins after initiating the incubation (0 min)", "setting": "[3]", "result": "28.2 ± 1.35", "unit": "%"}, {"measurement": "Radioactivity bound to plasma proteins at 2 h", "setting": "[3]", "result": "67.99 ± 3.56", "unit": "%"}, {"measurement": "Accumulation in the brain or lungs on micro‐PET/CT", "setting": "[4]", "result": "no noticeable accumulation"}, {"measurement": "Uptake in the hypothalamus on micro‐PET/CT images", "setting": "[4]", "result": "No uptake was observed"}, {"measurement": "tissue uptake at 2.5 h", "setting": "[5]; Ex vivo radioactivity in kidneys", "result": "1.5 ± 0.2", "unit": "%ID/g"}, {"measurement": "tissue uptake at 2.5 h", "setting": "[5]; Ex vivo radioactivity in organs other than kidneys", "result": "< 0.5", "unit": "%ID/g"}, {"measurement": "Serum:blood ratio", "setting": "[5]", "result": "sixfold to eightfold"}, {"measurement": "Stability in plasma at 5 min", "setting": "[6]", "result": "formation of a degradation product"}, {"measurement": "Stability in whole blood at 5 min", "setting": "[6]", "result": "formation of a degradation product"}, {"measurement": "logD", "setting": "[7]", "result": -2}]}]}
